Experimental data as given in the supplement of paper PMC9732359.
± gives the uncertainty stated by the source.

Test: protein stability index of a GFP-peptide fusion (yeast GPS) (PSI 1-4); higher = more stable; sorted into four equal gates, so the index is relative within each strain
Procedure, shortened: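 Sequencing reads from sorted gates were used to score each peptide. The library consisted of tiled 17-residue yeast protein peptides fused downstream of GFP on a Cherry-expressing plasmid, pooled and carried in yeast. Mid-log cultures in leucine-free medium were split into four equal gates by GFP/Cherry ratio, and each gate's plasmids were PCR-amplified and Illumina-sequenced. The protein stability index adds up, over all gates, the read frequency multiplied by the gate number.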

| Sequence | protein stability index (doa10∆) | protein stability index (pdr5∆) | protein stability index (san1∆) | protein stability index (ubr1∆) |
| --- | --- | --- | --- | --- |
| QLIGSNIELHSLYTSRE [PUP1] | 3.33 ± 0.25 | 3.33 ± 0.2 | 3.34 ± 0.26 | 2.91 ± 0.2 |
| TNILTKVDINADSAVNR [PRP28] | 3.37 ± 0.062 | 3.4 ± 0.074 | 3.3 ± 0.055 | 3.31 ± 0.059 |
| KNKKIEVYTKTIEVLDE [POP7] | 2.12 ± 0.11 | 2.78 ± 0.11 | 2.45 ± 0.15 | 2.61 ± 0.14 |
| TEELQTQYATSQKTKTI [SMC2] | 3.5 ± 0.24 | 3.19 ± 0.14 | 3.11 ± 0.23 | 3.18 ± 0.093 |
| DELERILKELSNLETLY [RPB4] | 3.21 ± 0.092 | 3.33 ± 0.082 | 3.21 ± 0.072 | 3.1 ± 0.12 |
| MCGVIVKQYNKKWPQFY [SIN4] | 1.65 ± 0.13 | 1.99 ± 0.096 | 1.62 ± 0.097 | 1.74 ± 0.046 |
| VQDRGLSAVAQAESMKF [RPS3] | 3.16 ± 0.11 | 3.16 ± 0.11 | 2.73 ± 0.15 | 2.9 ± 0.075 |
| VLSTFTAEFGKILAGLH [RPN10] | 3.11 ± 0.14 | 3.44 ± 0.15 | 3.1 ± 0.14 | 3.05 ± 0.11 |
| MKWDFAKDIKGYGTQKI [PRE4] | 2.15 ± 0.064 | 1.85 ± 0.057 | 1.84 ± 0.12 | 1.4 ± 0.048 |
| GLSQTEAFGNIKIDAKP [MCD1] | 2.07 ± 0.083 | 2.87 ± 0.15 | 1.77 ± 0.2 | 2.48 ± 0.078 |
| KILSILNRSHFATTKAE [ECM29] | 2.68 ± 0.076 | 2.33 ± 0.048 | 2.4 ± 0.047 | 2.19 ± 0.037 |
| VVDPKTSIEKSSEILSY [YML103C/NUP188] | 1.49 ± 0.087 | 1.43 ± 0.13 | 1.16 ± 0.12 | 1.12 ± 0.063 |
| TMYMEVYTAIYNYCVNK [CDC53] | 1.63 ± 0.047 | 1.55 ± 0.047 | 1.51 ± 0.061 | 1.7 ± 0.031 |
| IQCQIDKLYIHFVQEEP [RGR1] | 2.09 ± 0.093 | 2.55 ± 0.093 | 2.85 ± 0.083 | 3.15 ± 0.095 |
| SPTSPSYSPTSPSYSPT [RPO21] | 2.74 ± 0.037 | 2.91 ± 0.039 | 2.72 ± 0.036 | 2.82 ± 0.029 |
| DHINGSGKRKPTKAAQR [GAL11] | 2.3 ± 0.14 | 2.81 ± 0.094 | 3.1 ± 0.16 | 3.17 ± 0.1 |
| VIPSYSKWFNLEKIHSI [SWI3] | 1.69 ± 0.045 | 1.6 ± 0.049 | 1.44 ± 0.075 | 1.89 ± 0.038 |
| LWINYIKELLNITKNLK [POP4] | 1.34 ± 0.071 | 1.56 ± 0.062 | 1.62 ± 0.11 | 1.78 ± 0.054 |
| KRSFSSTLKSFFTNPNK [YOR098C/NUP1] | 2.39 ± 0.039 | 2.31 ± 0.04 | 2.32 ± 0.052 | 2.28 ± 0.033 |

| Sequence | protein stability index (doa10∆) | protein stability index (pdr5∆) | protein stability index (san1∆) | protein stability index (ubr1∆) |
| --- | --- | --- | --- | --- |
| GKLFSDIKVLKRQLIKE [YIL149C/MLP2] | 3.01 ± 0.12 | 2.56 ± 0.08 | 2.59 ± 0.078 | 2.42 ± 0.04 |
| VHVIHFQHADNSSMRYG [AAR2] | 2.73 ± 0.081 | 2.7 ± 0.073 | 2.32 ± 0.11 | 2.53 ± 0.055 |
| FEGTPPFSLTYVRTEET [YMR129W/POM152] | 2.31 ± 0.052 | 2.63 ± 0.056 | 2.54 ± 0.059 | 2.6 ± 0.041 |
| NFNSVNDANITSNKEGF [SSN2] | 3 ± 0.11 | 3.25 ± 0.084 | 3.32 ± 0.054 | 3.12 ± 0.065 |
| FSFGAKPAEKNNNETSK [YJL041W/NSP1] |  | 2.52 ± 0.24 |  | 3.08 ± 0.24 |
| KPGIPRGNTKIHSMNEN [SIR3] | 3.23 ± 0.2 | 2.9 ± 0.22 | 3.32 ± 0.098 | 3.23 ± 0.12 |
| KRAKEFITTLLKSLYSF [SIN4] | 2.19 ± 0.039 | 1.94 ± 0.05 | 1.83 ± 0.07 | 1.87 ± 0.032 |
| VPKHMLDKLDEILYYQI [AAR2] | 2.91 ± 0.069 | 3 ± 0.099 | 2.95 ± 0.076 | 3.17 ± 0.063 |
| QRYQDLSQQQKDAQKKD [YIL149C/MLP2] | 3.09 ± 0.08 | 3.08 ± 0.062 | 2.79 ± 0.071 | 2.94 ± 0.046 |
| SPDGRNFQVEYAVKAVE [PRE10] | 2.8 ± 0.079 | 2.81 ± 0.077 | 2.65 ± 0.07 | 2.37 ± 0.085 |
| NTHWGLVCPAETPEGQA [RPB2] | 1.53 ± 0.14 | 1.49 ± 0.1 | 1.78 ± 0.15 | 1.14 ± 0.097 |
| AVYETLISRMIFIATQL [BRR2] | 1.96 ± 0.072 | 1.55 ± 0.058 | 1.29 ± 0.096 | 1.62 ± 0.041 |
| RTSATREDTPLSQNEST [ISW2] | 2.99 ± 0.072 | 3.16 ± 0.064 | 2.93 ± 0.062 | 2.96 ± 0.05 |
| TKKSKLESTKAETDYVD [DSN1] | 2.58 ± 0.073 | 2.9 ± 0.069 | 2.73 ± 0.087 | 3.03 ± 0.059 |
| VVEKEKIESLAGGGESD [UBP6] | 3.35 ± 0.2 | 2.84 ± 0.24 | 2.89 ± 0.19 | 3.34 ± 0.15 |
| GETIKSNAVTQTNIWEE [SEM1] | 3.37 ± 0.087 | 3.54 ± 0.16 | 2.97 ± 0.17 | 3.43 ± 0.14 |
| EDEGEELTDEYLAENPD [PRP8] | 3.43 ± 0.12 | 3.39 ± 0.13 | 3.33 ± 0.12 | 3.34 ± 0.092 |
| MAKTLKDLDGWQVIITD [SIR3] | 1.65 ± 0.16 | 2.4 ± 0.12 | 2.81 ± 0.14 | 2.71 ± 0.14 |
| SQSRSAKAGLTFPVGRV [HTA1] | 2.8 ± 0.071 | 2.85 ± 0.08 | 2.92 ± 0.042 | 3.07 ± 0.035 |
